Measurements taken from patent US20260216354A1, “ANTI-CMET ANTIBODY, ANTIBODY-DRUG CONJUGATE, AND PREPARATION METHOD THEREFOR AND USE THEREOF” (MEDILINK THERAPEUTICS (SUZHOU) CO., LTD., priority 2022, published 2026).
Substitutions are numbered along the chain they refer to.

B1: 44H10E8: murine-derived anti-cMET monoclonal antibody; VL SEQ ID NO: 5, VH SEQ ID NO: 6 (antibody, V domains shown)
VH: QVHLQQSGAELARPGASVKMSCKASGYTFISYTIHWVKQSPGQGLEWIGYINPSSGYAKNNPKFQDKATLTADTSSTTAYIQLSSLTSEDSAVYYCTRPYGDFVDWYFDVWGTGTTVTVSS
VL: NIMMTQSPSSLAVSAGEKVTMNCKSSQSVLYFSNQKNCLAWYQQKPGQSPKLLIYWASTRESGVPDRFTGSGSGTDFTLTISSVQADDLAVYYCQQYLSSLTFGAGTKLELK
B2: 45A5G10: murine-derived anti-cMET monoclonal antibody; VL SEQ ID NO: 1, VH SEQ ID NO: 2 (antibody, V domains shown)
VH: EVRLEESGGGFVQPGGSMKISCVASGFTFSNYWMNWVRQSPEKGLEWVAQIRLKSLNYATHYAESVKGRFTISRDDSRNSVYLQMNNLRAEDAGIYYCTEEGFAYWGRGTLVTVSA
VL: IVMTQSPASLPVSLGQRATISCRASESVDDYGVSFVNWFQQKPGQPPKLLIYTASVQESGVPARFSGSGSGTDFSLNIHPLEEDDTAMYFCQQSKEIPPTFGGGTKLEIK
B3: 41F5B2: murine-derived anti-cMET antibody of Table 1; probably clone 51D5B2 (VL SEQ ID NO: 7, VH SEQ ID NO: 8) (antibody, V domains shown)
VH: B2 VH with E6D
VL: B2 VL with S75R
B4: 55A10G6: murine-derived anti-cMET monoclonal antibody; VL SEQ ID NO: 3, VH SEQ ID NO: 4 (antibody, V domains shown)
VH: QIQLQQSGPELVKPGASVKISCKASGYTFTDYYLNWVRQRPGQGLEWIGWIFPGSGNTKYIEKFKGKATLTVDTSSSTAYMLLSSLTSEDSAVYFCAGGDYGGFTYWGQGTLVAVSA
VL: DIQMTQSPPSLSASVGETVTITCGASENIYGALNWYQRKQGKSPQLLIYGATNLAAGMSSRFSGSGSGRQFSLKISSLHPDDVATYYCQNVLSEPLTFGAGTKLELK

Each molecule was assayed on MKN45 tumor cells (assay: FACS affinity of murine-derived antibodies to MKN45 tumor cells).
Assay type: binding, human
Method: (§1) 4 mice, all female, are selected from each of strains of CDT (Vital River), KM (Vital River), and Balb/c (Gempharmatech Co., Ltd.), and are enrolled into a group at about 6 weeks old. Immunization is performed using cMET-His and hcMET-mFc (Sichuan Sibowo Biotechnology Co., Ltd.), and after 2 times of booster immunization, serum titers are detected through ELISA. For a mouse with a higher ELISA protein titer, an affinity titer of tumor cells MKN-45 and a competition FACS titer of MKN45-HGF are detected through FACS. Finally, 1 mouse from each of CD1, KM, and Balb/c is selected, and the spleen and lymph node thereof are used to prepare cell suspensions for hybridoma fusion with SP2/0 mouse myeloma cells. ELISA preliminary screening is performed through human hMET-ECD-hFc antigen proteins, and after the preliminary screening, positive hybridomas are selected to be cloned. Hybridoma cells are cultured in a serum-free medium, and a collected monoclonal supernatant is purified through the ProA filler to obtain murine-derived antibodies. Affinities of the murine-derived antibodies to human MET-ECD-hFc and cyno MET-ECD-hFc proteins are detected through ELISA, and the affinity of the murine-derived antibodies to the MKN45 tumor cells and blocking of MKN45-HGF ligand competition is detected through FACS.

**Q.** How did the “MKN45 (EC50 = ng/ml)” value turn out when B1 was run?
**A.** Its value is 149.7 ng/mL.

**Q.** B2 was tested. Which “MKN45 (EC50 = ng/ml)” value did it give?
**A.** Its value is 41.25 ng/mL.

**Q.** How did the “MKN45 (EC50 = ng/ml)” value turn out when B3 was run?
**A.** The value was 348.5 ng/mL.

**Q.** For B4, which “MKN45 (EC50 = ng/ml)” value is on record?
**A.** Its value is 63.08 ng/mL.

These molecules were tested against T1, MKN45-HGF (Homo sapiens, UniProt P08581) (assay: FACS blocking of MKN45-HGF ligand competition (murine-derived antibodies)).
T1 construct: MKN45 cells expressing c-MET antigens; endogenous in cells; host or cells: MKN45
Assay type: binding
Method: as §1

T1 sequence (P08581 25-1390): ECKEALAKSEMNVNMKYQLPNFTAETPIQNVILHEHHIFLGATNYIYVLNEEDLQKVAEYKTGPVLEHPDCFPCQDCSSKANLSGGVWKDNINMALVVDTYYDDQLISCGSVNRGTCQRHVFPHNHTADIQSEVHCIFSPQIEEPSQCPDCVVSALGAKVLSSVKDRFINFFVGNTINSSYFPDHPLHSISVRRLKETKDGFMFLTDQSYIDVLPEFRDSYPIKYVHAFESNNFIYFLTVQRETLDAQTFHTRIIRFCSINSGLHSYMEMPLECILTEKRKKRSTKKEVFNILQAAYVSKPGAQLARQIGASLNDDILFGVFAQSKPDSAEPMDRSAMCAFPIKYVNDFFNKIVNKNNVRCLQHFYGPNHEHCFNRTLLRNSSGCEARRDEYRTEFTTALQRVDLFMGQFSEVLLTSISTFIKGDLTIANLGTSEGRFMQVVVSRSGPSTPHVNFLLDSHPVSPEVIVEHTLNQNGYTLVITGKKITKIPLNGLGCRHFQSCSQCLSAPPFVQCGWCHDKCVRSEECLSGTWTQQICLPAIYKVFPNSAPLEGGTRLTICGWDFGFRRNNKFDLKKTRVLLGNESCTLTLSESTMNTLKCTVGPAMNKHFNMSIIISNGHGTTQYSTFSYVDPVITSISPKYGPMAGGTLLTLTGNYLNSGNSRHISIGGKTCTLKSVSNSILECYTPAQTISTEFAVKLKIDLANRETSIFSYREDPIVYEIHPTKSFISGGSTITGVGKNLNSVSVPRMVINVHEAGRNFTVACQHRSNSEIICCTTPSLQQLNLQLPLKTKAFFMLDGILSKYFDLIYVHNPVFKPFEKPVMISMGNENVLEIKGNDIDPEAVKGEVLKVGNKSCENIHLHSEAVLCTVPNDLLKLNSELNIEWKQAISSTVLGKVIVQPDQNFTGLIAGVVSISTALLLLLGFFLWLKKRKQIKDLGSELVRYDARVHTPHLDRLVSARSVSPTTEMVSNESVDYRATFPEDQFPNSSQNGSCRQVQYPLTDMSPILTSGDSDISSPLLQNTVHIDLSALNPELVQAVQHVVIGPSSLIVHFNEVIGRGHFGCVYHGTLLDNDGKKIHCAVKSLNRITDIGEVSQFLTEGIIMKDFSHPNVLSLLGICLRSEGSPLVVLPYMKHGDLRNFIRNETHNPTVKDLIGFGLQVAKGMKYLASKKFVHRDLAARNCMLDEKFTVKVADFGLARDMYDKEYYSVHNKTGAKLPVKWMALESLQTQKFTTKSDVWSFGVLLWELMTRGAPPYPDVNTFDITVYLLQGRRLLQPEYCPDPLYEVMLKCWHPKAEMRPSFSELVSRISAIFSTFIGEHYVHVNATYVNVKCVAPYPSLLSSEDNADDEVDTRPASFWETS

**Q.** With B1 as the molecule, how does the “MKN45-HGF competition (IC50 = ng/ml)” value read?
**A.** Its value is 88.57 ng/mL.

**Q.** Which “MKN45-HGF competition (IC50 = ng/ml)” value does the source give for B2 here?
**A.** Its value is 53.28 ng/mL.

**Q.** Which “MKN45-HGF competition (IC50 = ng/ml)” value does the source give for B3 here?
**A.** The value was “No activity”.

**Q.** How did the “MKN45-HGF competition (IC50 = ng/ml)” value turn out when B4 was run?
**A.** Its value is 31.28 ng/mL.

What follows are molecules tested on Cyno.cMet-ECD-hFc (assay: ELISA affinity of murine-derived antibodies to cyno MET-ECD-hFc).
Assay type: binding
Method: as §1

**Q.** Which “Cyno.cMet-ECD-hFc (EC50 = ng/ml)” value does the source give for B1 here?
**A.** The value was 25.72 ng/mL.

**Q.** Which “Cyno.cMet-ECD-hFc (EC50 = ng/ml)” value does the source give for B2 here?
**A.** Its value is 10.34 ng/mL.

**Q.** How did the “Cyno.cMet-ECD-hFc (EC50 = ng/ml)” value turn out when B4 was run?
**A.** Its value is 14.9 ng/mL.

Each molecule was assayed against T2, cMet-ECD-hFc (Homo sapiens, UniProt P08581) (assay: ELISA affinity of murine-derived antibodies to human MET-ECD-hFc).
T2 construct: made in house; host or cells: HEK293E
Assay type: binding
Method: as §1

T2 sequence (P08581 25-932): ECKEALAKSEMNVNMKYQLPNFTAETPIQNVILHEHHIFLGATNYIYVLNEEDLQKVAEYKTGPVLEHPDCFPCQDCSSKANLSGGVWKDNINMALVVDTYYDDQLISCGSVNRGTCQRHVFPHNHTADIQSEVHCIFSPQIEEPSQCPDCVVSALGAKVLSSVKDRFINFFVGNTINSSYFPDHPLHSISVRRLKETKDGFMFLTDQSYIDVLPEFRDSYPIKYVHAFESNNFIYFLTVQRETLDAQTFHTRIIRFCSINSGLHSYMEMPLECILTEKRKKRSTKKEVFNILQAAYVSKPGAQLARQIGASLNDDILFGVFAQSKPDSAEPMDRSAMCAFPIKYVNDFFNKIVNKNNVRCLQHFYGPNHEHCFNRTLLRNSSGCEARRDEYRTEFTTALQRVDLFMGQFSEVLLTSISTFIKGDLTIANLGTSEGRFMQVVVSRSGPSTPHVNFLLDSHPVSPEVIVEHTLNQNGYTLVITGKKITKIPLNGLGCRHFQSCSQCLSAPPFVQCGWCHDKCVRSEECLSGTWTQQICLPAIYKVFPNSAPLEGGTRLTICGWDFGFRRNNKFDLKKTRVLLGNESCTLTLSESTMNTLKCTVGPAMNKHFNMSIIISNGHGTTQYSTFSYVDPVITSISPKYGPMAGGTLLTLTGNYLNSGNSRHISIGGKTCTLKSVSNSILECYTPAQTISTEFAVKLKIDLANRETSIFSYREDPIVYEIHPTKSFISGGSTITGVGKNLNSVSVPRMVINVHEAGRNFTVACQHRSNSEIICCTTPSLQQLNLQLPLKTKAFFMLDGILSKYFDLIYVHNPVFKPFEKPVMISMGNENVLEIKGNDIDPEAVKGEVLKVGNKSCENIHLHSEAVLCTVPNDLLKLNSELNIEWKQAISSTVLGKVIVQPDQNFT

**Q.** B1 was tested. Which “cMet-ECD-hFc (EC50 = ng/ml)” value did it give?
**A.** The value was 15.76 ng/mL.

**Q.** How did the “cMet-ECD-hFc (EC50 = ng/ml)” value turn out when B2 was run?
**A.** The value was 6.387 ng/mL.

**Q.** B3 was tested. Which “cMet-ECD-hFc (EC50 = ng/ml)” value did it give?
**A.** The value was 4.807 ng/mL.

**Q.** How did the “cMet-ECD-hFc (EC50 = ng/ml)” value turn out when B4 was run?
**A.** Its value is 7.701 ng/mL.
